Where two headings read alike, the source gives them in different places.
Legend:
[1] = biological target: GFP fused to the C-terminal peptide recognized by the original PDZ (pep, CRIPT) (Aequorea victoria, UniProt P42212, F64L/H231L/S65T); details: 6XHis-PDZ on Ni-NTA agarose, E. coli extract, anti-GFP Western blot
Description: (§1) To carry out the affinity chromatography assay, bacterially-expressed PDZ domains and EGFP derivatives were produced and fused to the different target peptides. The original and modified PDZ domains were expressed in E. coli XL1-Blue as fusions with 6XHis. The EGFP-peptides fusions were expressed in E. coli BL21 as described in Sambrook et al, 1989, Molecular Cloning: A Laboratory Manual, 2nd Ed., Vol 3. The bacterially expressed PDZ domains were then bound to nickel resin (Ni-NTA agarose, Quiagen) as described by the manufacturer. The resin-bound PDZ domains were then incubated with E.coli extracts made from bacteria expressing each of the target peptide-GFP fusions and washed four times with 50 mM NaH2PO4, 300 mM NaCl; 20 mM Imidazole; 0,1% of TritonX-100 to remove any unbound proteins. The bound proteins were eluted using 50 mM NaH2PO4, 300 mM NaCl; 200 mM Imidazole and analyzed by Western blot using antibodies against GFP to determine the presence of EGFP fused to the target peptide.

GFP = GFP (Aequorea victoria, UniProt P42212, F64L/H231L/S65T); details: 6XHis-PDZ on Ni-NTA agarose, E. coli extract, anti-GFP Western blot
Description: as §1

[2] = biological target: GFP fused to the Eg5 C-terminal peptide (Mus musculus, UniProt Q6P9P6); details: 6XHis-PDZ on Ni-NTA agarose, E. coli extract, anti-GFP Western blot
Description: as §1

Biotin-GG-KQTSV = biological target: T1, Biotin-GG-KQTSV (Homo sapiens, UniProt Q9P021); experiment: Micro-calorimetric assay; assay type: binding
T1 construct: with its natural target (Biotin-GG-KQTSV)
Description: Physical methods for measuring the dissociation (or affinity) constant include iso-thermal calorimetry, surface plasmon resonance, analytical ultra-centrifagation (where appropriate), and so forth. Iso-thermal calorimetry is the preferred method. Iso-thermal calorimetry measures the heat released when a binding polypeptide binds to its target under constant-temperature, constant-pressure conditions. From these measurements, the thermodynamic parameters of this binding can be routinely determined by the methods of physical chemistry. For example, it is routinely possible to obtain the binding affinity (or dissociation constant), the stoichiometry of binding (n), the heat (or enthalpy) of binding (H), the heat capacity of binding, the entropy of binding, and so forth. Current micro-iso-thermal machines are readily available commercially. Such machines are fully automatic, directly returning the above thermodynamic results. See, e.g., MicoCal, LLC, Northampton. Mass.; www.microcalorimetry.com.
FIG. 14 illustrates the routine use of micro-calorimetry to determine the binding parameters of the wild-type PDZ (PDZ3 of PSD095) domain with its natural target (Biotin-GG-KQTSV). This figure present the output of an automated micro-calorimetry experiment returning the stoichiometry constant (n), the affinity constant (K), the enthalpy of binding (H), and the entropy of binding (S).

[3] = biological target: GFP-PEP (natural target peptide of the PDZ-3 domain, C-terminus of CRIPT) (Aequorea victoria, UniProt P42212, F64L/H231L/S65T); details: PDZ fused to Gal4 activation domain, GFP-pep fused to Gal4 binding domain, SD lacking Trp, Leu, His, Adenine
Experimental: The two parts of the yeast two-hybrid system were prepared as follows. On one hand, either of the GFP derivatives carrying the C-terminal protein sequences (GFP-pep and GFP-Eg5) were cloned between the NcoI and BamHI sites the pGBKT7 plasmid (Clontech) to obtain a fusion with the DNA binding domain of Gal4. On the other hand, the modified PDZ domains were cloned between the EcoRI and XhoI sites of pGADT7 (Clontech) to obtain a fusion with the activation domain of Gal4. The resulting plasmids were introduced in the yeast strain J569a using the method described by Agatep et al, 1998. Yeast cells were plated in SD lacking Trp and Leu, and then stricken in selective SD medium lacking Trp, Leu, His, and Adenine. Cells only grow in this selective medium if there is an interaction between the expression products of the two plasmids.
Yeast cells transfected with only one of the two plasmids were also tested as controls.

B1: PDZ-3: third PDZ domain of the mouse PSD-95 protein, amino acid 302 to 402; unmodified redesign precursor (protein, UniProt Q62108 302-402, looked up, fragment)
chain: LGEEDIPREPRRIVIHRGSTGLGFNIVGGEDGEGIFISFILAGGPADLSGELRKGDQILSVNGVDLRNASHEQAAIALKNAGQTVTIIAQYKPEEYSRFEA
modifications: PDZ 3
notes: third PDZ domain of the mouse PSD-95 protein, amino acid 302 to 402; unmodified redesign precursor
[1]
  binding of GFP-pep fusion to immobilized PDZ domain: binds only to its naturally recognized target peptide
[1]; listed as original PDZ
  binding of GFP-pep fusion to immobilized PDZ domain: very efficiently bind
GFP
  binding of GFP alone to immobilized PDZ domain: not able to bind
[2]
  binding of GFP-Eg5 fusion to immobilized PDZ domain: not able to bind
Biotin-GG-KQTSV; corresponding to the measured affinity constant, read-out: dissociation constant
  Kd: 39 µM
Biotin-GG-KQTSV; micro-calorimetry, natural target Biotin-GG-KQTSV
  affinity constant (K): 25700 M⁻¹
[3]
  viability of transfected yeast cells in selective medium (interaction): specifically interacts with its target peptide
[3]; listed as PGADT7-PDZ
  viability of transfected yeast cells in selective medium (interaction): allow viability

Reference: patent US20030059827A1, “Engineered protein binding domains and methods and systems for their design and use” (priority 2001, published 2003)
